According to patent US5871954A, “Fatty acid analog enzyme substrates” (Washington University, priority 1993, dated 1999):

T1: yeast NMT (Saccharomyces cerevisiae, UniProt P14743)
T1 construct: 11,000-fold purified preparation of yeast NMT; from tissue; host or cells: yeast
T1 sequence (P14743 1-455): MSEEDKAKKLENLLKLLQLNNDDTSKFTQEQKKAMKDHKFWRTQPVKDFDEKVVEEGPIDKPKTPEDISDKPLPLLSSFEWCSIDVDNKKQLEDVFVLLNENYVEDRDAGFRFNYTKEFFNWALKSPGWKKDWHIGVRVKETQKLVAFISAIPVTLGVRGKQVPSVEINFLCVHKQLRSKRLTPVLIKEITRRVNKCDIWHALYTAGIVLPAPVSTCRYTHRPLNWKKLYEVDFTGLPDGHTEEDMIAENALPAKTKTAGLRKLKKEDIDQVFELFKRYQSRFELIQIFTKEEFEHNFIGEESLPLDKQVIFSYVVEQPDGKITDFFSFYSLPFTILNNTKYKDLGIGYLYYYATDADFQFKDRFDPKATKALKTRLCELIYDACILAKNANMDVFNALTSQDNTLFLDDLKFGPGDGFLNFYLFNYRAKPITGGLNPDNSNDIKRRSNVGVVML

B1: yeast NMT (Saccharomyces cerevisiae S288C) (protein)
chain: T1 sequence (P14743 1-455)
notes: 11,000-fold purified preparation of yeast NMT; from tissue; host or cells: yeast

What was measured:
[1] = test system: Saccharomyces cerevisiae strain BJ405; assay: toxicity / growth rate of yeast cells; assay type: cell-based
Description: (§1) Saccharomyces cerevisiae strain BJ405 [MATα, trpl, prbl, prcl, pep4-3; Hemmings et al., Proc. Natl. Acad. Sci. USA 78, 435-439 (1981)] (previously referred to as JR153) was grown to mid-log phase (OD660nm=1.0-1.2) in YPD medium (1% yeast extract/2% Bactopeptone/2% Dextrose) at 30° C. in a rotary shaker water bath. Cells were pretreated with Cerulenin at 2 μg/ml for 15 minutes and then incubated for 20-45 minutes with unlabeled myristate, palmitate or fatty acid analog at 100 μM in the presence of either 5 μM [9,10-^3 H(N)]-myristate (22.4 Ci/mmol) or L-[^35 S]methionine (1106 Ci/mmol) at 30 μCi/ml of culture.
Furthermore, 100 μM myristate and 100 μM analog produced a similar modest reduction (10-15%) in total protein synthesis (measured by the incorporation of [^35 S]methionine into TCA precipitable protein) compared to control cells which were not exposed to exogenous fatty acid.

[2] = 2-octanol/water partition; assay type: physicochemical
Description: For these Examples, each analog synthesized is characterized by ^1 H and 13C NMR as well as mass spectroscopy. The analogs are then characterized kinetically as NMT substrates. Briefly, fatty acid analogs are converted to their CoA esters with Pseudomonas CoA ligase and incubated with the iodinated peptide GNAAS[^125 I]YRR and a source of NMT. […] The radiolabelled peptide is then used at concentrations which will lead to 50% enzyme saturation (i.e., at its Km) for the determination of fatty acid analog kinetic characteristics. Representative analogs with sulfur or oxygen in the backbone of the fatty acid chain serve as good substrates for NMT in vitro and will compete for incorporation of ^3 H labelled myri-state into yeast proteins in vivo. In addition, these analogs differ markedly in hydrophobicity from myri-state as measured both by C18 reverse phase HPLC elution profiles and by 2-octanol/water partition coefficients. The analog CH3 O (CH2)11 COOH, for example, partitions into water 20 fold better than myristate. It is believed that these analogs will be incorporated into mammalian acylproteins in vivo and that their incorporation into these proteins will drastically alter protein processing or targeting. […]

[3] = test system: known yeast myristoylprotein of Mr 20 kDa; assay: competition for incorporation of [3H]myristate into a yeast myristoylprotein; assay type: cell-based, Saccharomyces cerevisiae strain BJ405; settings: in words
Description: as §1
Cells were cooled on ice 5 minutes, pelleted at 10,000×g, then broken and extracted by the method of Towler et al., Proc. Natl. Acad. Sci. USA 83, 2812-2816 (1986). Total protein synthesis was assayed by trichloroacetic acid (TCA) precipitation. Proteins were separated by SDS-12% polyacrylamide gel electrophoresis, and [^3 H]fatty acid incorporation into cellular acyl-proteins was assayed by autoradiography followed by laser densitometry.

yeast NMT = molecular target: T1, yeast NMT; assay: in vitro yeast NMT assay, kinetics of fatty acid analog substrates with iodinated peptide GNAAS[125I]YRR; assay type: biochemical; settings: Table 2; relative to myristate control 100%; peptide at its Km
From the text: (§2) Similar results were obtained using an 11,000-fold purified preparation of yeast NMT [Towler et al., Proc. Natl. Acad. Sci. USA 84, 2708-2712 (1987)].
(§3) Other illustrative examples of the oxy- and thio-substituted fatty acid analog substrate compounds of the invention were synthesized in Examples 6 to 14 and tested in Example 15 as substrates for the yeast NMT.
(§4) For these Examples, each analog synthesized is characterized by ^1 H and 13C NMR as well as mass spectroscopy. The analogs are then characterized kinetically as NMT substrates. Briefly, fatty acid analogs are converted to their CoA esters with Pseudomonas CoA ligase and incubated with the iodinated peptide GNAAS[^125 I]YRR and a source of NMT. […] The radiolabelled peptide is then used at concentrations which will lead to 50% enzyme saturation (i.e., at its Km) for the determination of fatty acid analog kinetic characteristics. Representative analogs with sulfur or oxygen in the backbone of the fatty acid chain serve as good substrates for NMT in vitro and will compete for incorporation of ^3 H labelled myri-state into yeast proteins in vivo. In addition, these analogs differ markedly in hydrophobicity from myri-state as measured both by C18 reverse phase HPLC elution profiles and by 2-octanol/water partition coefficients. The analog CH3 O (CH2)11 COOH, for example, partitions into water 20 fold better than myristate. It is believed that these analogs will be incorporated into mammalian acylproteins in vivo and that their incorporation into these proteins will drastically alter protein processing or targeting. It is further believed that the incorporation of fatty acid analogs of both myristate and palmitate into ester linked and phosphatidyl inositol glycan linked acylproteins will also dramatically alter their properties. Since many viral proteins and oncogenes are acylated, these compounds represent a new class of potential antiviral and antineoplastic agents.

[4] = substrate: CCSCCCCCCCCCCC(=O)O; assay: as above; assay type: biochemical; settings: other: Table 2; peptide at its Km
From the text: as §2, §3, §4

[5] = substrate: C#CCOCCCCCCCCCC(=O)O; assay: as above; assay type: biochemical; settings: other: Table 2; peptide at its Km
From the text: as §2, §3, §4

[6] = substrate: CCCCOCCCCCCCCCCC(=O)O; assay: as above; assay type: biochemical; settings: other: Table 2; peptide at its Km
From the text: as §2, §3, §4

[7] = substrate: CCCCCCCCOCCCCC(=O)O; assay: as above; assay type: biochemical; settings: other: Table 2; peptide at its Km
From the text: as §2, §3, §4

[8] = substrate: CCCCCCCCSCCCCC(=O)O; assay: as above; assay type: biochemical; settings: other: Table 2; peptide at its Km
From the text: as §2, §3, §4

[9] = substrate: CCCCCCCCCCCCCC(=O)O; assay: as above; assay type: biochemical; settings: other: Table 2; peptide at its Km
From the text: as §2, §3, §4

[10] = substrate: CCOCCCCCCCCCCC(=O)O; assay: as above; assay type: biochemical; settings: other: Table 2; peptide at its Km
From the text: as §2, §3, §4

[11] = substrate: COCCCCCCCCCCC(=O)O; assay: as above; assay type: biochemical; settings: other: Table 2; peptide at its Km
From the text: as §2, §3, §4

[12] = substrate: CCCSCCCCCCCCCC(=O)O; assay: as above; assay type: biochemical; settings: other: Table 2; peptide at its Km
From the text: as §2, §3, §4

[13] = substrate: CCCOCCCCCCCCCC(=O)O; assay: as above; assay type: biochemical; settings: other: Table 2; peptide at its Km
From the text: as §2, §3, §4

[14] = substrate: COCCCCCCCCCCCC(=O)O; assay: as above; assay type: biochemical; settings: other: Table 2; peptide at its Km
From the text: as §2, §3, §4

Row | Molecule | growth rates of cells vs 100 μM myristate [1] | toxicity to cells ([1]; 100 μM) | partition into water vs myristate [2] [fold] | entry into yeast / competition with labeled myristate for incorporation into yeast protein [3] | Acyl CoA Vm (yeast NMT) | Km [4] [µM] | Km [5] [µM] | Km [6] [µM] | Km [7] [µM] | Km [8] [µM] | Km [9] [µM] | Km [10] [µM] | Km [11] [µM] | Km [12] [µM] | Km [13] [µM] | Km [14] [µM]
1 | COCCCCCCCCCCCC(=O)O [CH3 O(CH2)11 COOH, 12-(Methoxy)dodecanoic acid] | No difference in the growth rates | does not appear to be toxic to cells | 20 | can successfully enter yeast and compete with labeled myristate for incorporation into a known myristoylprotein | ~ 110% |  |  |  |  |  |  |  |  |  |  | 
2 | B1 |  |  |  |  |  | 1.4 | 6.5 | 1 | 1.6 | 1.5 | 0.6 | 1.8 | 6.9 | 1.5 | 6.1 | 2
